Our source for the detectable gp120 concentration in human blood, gp120 concentration detected and detection limit of gp120 values is patent US20160237122A1.

Assay [1] addresses HIV-1 gp120 protein (Fitzgerald Industries International Inc, USA) (HIV-1). Briefly: dot blot: value derived from 1 pg in 1 mL of 10-fold diluted human serum.
Assay [2] has the same target. Description: fusion peptide on Ni-NTA magnetic agarose beads, detected with FITC-labeled gp120 antibody, fluorescence microscopy.
Assay [3] shares this target. Description: dot blot: 5 ng fusion F23 peptide on nitrocellulose, gp120 in 10-fold diluted human serum, HRP-conjugated gp120 antibody, chemiluminescence.

B1: fusion F23 peptide (His6-tag, 15 amino acid linker derived from E. coli DHFR, F23) (designed binder)
chain: MIHHHHHHEMISLIAALAVIEGRCNLHFCQLRCKSLGLLGKCAGSFCACV
Consider B1, for which, in assay [1], the detectable gp120 concentration in human blood was 10 pg/mL. Besides, the gp120 concentration detected in assay [2] came to 10 ng/µL. Also, in assay [3], the detection limit of gp120 was 1 pg/mL.
